B1: B21H4-14 (antibody, human IgG4 S228P, kappa)
heavy: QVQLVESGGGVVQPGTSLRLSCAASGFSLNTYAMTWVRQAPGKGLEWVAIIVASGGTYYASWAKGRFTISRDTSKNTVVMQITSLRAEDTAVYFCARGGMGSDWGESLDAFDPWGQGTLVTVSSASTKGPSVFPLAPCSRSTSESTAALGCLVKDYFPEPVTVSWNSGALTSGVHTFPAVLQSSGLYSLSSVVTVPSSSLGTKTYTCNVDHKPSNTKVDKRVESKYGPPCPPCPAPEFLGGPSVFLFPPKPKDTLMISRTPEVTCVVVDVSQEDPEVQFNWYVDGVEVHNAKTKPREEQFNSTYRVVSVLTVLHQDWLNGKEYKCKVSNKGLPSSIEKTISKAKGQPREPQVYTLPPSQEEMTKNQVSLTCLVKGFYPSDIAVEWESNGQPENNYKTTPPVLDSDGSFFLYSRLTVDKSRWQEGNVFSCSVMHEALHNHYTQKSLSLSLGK
light: DVVMTQSPSTVSASVGDRVTLTCQASGNIYSFLAWYQQKPGQPPKLLIYTASNLETGVPDRFSGSGSGTDYTLTISSLQADDFATYYCLGGLYSSDVSYAFGQGTKVEIKRTVAAPSVFIFPPSDEQLKSGTASVVCLLNNFYPREAKVQWKVDNALQSGNSQESVTEQDSKDSTYSLSSTLTLSKADYEKHKVYACEVTHQGLSSPVTKSFNRGEC
notes: humanized IgG4/kappa, VH1+VL4; transfection supernatant
B2: B21A4 (antibody, human IgG4 S228P, kappa)
heavy: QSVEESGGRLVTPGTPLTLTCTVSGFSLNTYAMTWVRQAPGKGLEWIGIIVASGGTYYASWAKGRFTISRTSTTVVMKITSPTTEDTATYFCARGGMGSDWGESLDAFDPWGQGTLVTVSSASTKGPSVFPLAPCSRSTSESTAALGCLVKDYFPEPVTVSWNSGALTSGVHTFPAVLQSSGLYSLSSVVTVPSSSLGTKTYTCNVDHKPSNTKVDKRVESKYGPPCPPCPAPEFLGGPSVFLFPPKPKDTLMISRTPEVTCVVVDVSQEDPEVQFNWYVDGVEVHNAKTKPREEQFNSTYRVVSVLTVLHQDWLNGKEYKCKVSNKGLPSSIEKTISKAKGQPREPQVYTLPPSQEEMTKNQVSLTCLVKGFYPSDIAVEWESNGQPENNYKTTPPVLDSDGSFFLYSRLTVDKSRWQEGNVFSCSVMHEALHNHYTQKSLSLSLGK
light: DIVMTQTPASVEAAVGGTVTINCQASGNIYSFLAWYQQKPGQPPKLLIYTASNLETGVPSRFSGSGSGTEYTLTISGVQCDDAATYYCLGGLYSSDVSYAFGGGTEVVVKRTVAAPSVFIFPPSDEQLKSGTASVVCLLNNFYPREAKVQWKVDNALQSGNSQESVTEQDSKDSTYSLSSTLTLSKADYEKHKVYACEVTHQGLSSPVTKSFNRGEC
notes: Rabbit/human chimera, human IgG4/kappa; 3 is used here; also called B21A chimera IgG4; Clone B21A4
B3: B21H4-13 (antibody, human IgG4 S228P, kappa)
heavy: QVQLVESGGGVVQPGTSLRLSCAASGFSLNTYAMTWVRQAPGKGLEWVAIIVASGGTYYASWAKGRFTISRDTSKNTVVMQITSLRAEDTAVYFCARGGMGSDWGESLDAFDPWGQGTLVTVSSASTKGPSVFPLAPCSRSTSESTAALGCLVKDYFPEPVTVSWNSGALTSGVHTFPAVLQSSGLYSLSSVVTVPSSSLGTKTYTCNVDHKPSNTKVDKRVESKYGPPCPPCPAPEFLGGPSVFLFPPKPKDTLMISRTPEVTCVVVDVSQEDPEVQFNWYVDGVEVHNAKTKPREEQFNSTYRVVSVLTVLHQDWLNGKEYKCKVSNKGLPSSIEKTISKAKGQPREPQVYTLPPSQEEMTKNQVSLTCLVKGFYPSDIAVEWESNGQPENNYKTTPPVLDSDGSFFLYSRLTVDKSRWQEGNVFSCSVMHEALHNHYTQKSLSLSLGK
light: DIVMTQSPSSVSASVGDRVTITCQASGNIYSFLAWYQQKPGKAPKLLIYTASNLETGVPSRFSGSGSGTDFTLTISSLQPEDFATYYCLGGLYSSDVSYAFGGGTKVVIKRTVAAPSVFIFPPSDEQLKSGTASVVCLLNNFYPREAKVQWKVDNALQSGNSQESVTEQDSKDSTYSLSSTLTLSKADYEKHKVYACEVTHQGLSSPVTKSFNRGEC
notes: humanized IgG4/kappa, VH1+VL3; transfection supernatant
B4: B21H4-53 (antibody, human IgG4 S228P, kappa, V domains shown)
VH: QVQLEESGGRLVQPGTSLRLSCAVSGFSLNTYAMTWVRQAPGKGLEWIGIIVASGGTYYASWAKGRFTISRDTSKNTLYLQITSLRAEDTATYFCARGGMGSDWGESLDAFDPWGQGTLVTVSS
VL: DIVMTQSPSSVSASVGDRVTITCQASGNIYSFLAWYQQKPGKAPKLLIYTASNLETGVPSRFSGSGSGTDFTLTISSLQPEDFATYYCLGGLYSSDVSYAFGGGTKVVIKR
notes: humanized IgG4/kappa, VH5+VL3; transfection supernatant
B5: B21H4-54 (antibody, human IgG4 S228P, kappa, V domains shown)
VH: B4 VH
VL: DVVMTQSPSTVSASVGDRVTLTCQASGNIYSFLAWYQQKPGQPPKLLIYTASNLETGVPDRFSGSGSGTDYTLTISSLQADDFATYYCLGGLYSSDVSYAFGQGTKVEIKR
notes: humanized IgG4/kappa, VH5+VL4; transfection supernatant

As a reminder, the EC50 is the concentration needed to bring the measured effect to its halfway point.

T2 sequence (Q8NHL6 24-458 limits assumed): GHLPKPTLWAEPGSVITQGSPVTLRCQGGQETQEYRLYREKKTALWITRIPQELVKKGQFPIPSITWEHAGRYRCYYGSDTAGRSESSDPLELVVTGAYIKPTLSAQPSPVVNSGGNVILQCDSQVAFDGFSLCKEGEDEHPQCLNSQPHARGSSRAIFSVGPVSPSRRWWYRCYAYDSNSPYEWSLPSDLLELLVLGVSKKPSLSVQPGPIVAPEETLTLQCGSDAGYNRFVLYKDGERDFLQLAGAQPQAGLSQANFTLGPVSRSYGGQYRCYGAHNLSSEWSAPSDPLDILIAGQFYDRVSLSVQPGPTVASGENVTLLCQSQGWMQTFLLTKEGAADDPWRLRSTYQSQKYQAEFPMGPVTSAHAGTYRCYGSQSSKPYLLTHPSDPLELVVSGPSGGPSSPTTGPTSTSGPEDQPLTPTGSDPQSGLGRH
T1 sequence (Q8N423 22-461 limits assumed): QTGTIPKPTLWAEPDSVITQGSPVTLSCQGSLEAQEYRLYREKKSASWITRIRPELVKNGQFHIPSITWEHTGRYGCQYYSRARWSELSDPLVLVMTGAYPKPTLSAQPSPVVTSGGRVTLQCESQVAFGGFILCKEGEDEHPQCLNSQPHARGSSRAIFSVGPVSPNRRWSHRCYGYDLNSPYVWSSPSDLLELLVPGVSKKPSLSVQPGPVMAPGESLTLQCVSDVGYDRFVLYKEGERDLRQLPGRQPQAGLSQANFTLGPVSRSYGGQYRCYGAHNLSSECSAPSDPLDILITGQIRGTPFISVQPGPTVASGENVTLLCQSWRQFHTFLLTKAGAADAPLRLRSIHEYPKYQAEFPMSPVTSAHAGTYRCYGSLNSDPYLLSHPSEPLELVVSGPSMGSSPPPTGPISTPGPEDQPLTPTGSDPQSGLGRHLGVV

One experiment has as its target T1, recombinant human LILRB2-His (human, UniProt Q8N423 22-461, limits assumed).
T1 construct: Bought protein; also called LILRB2 protein
The experiment can be described thus: MSD ELISA, coated antigen, transfection supernatant. The method, then: (§1) To confirm binding to human LILRB1 and human LILRB2, transfection supernatants (obtained in Example 2) were evaluated for binding by ELISA. The conditioned media from these transient transfections were assayed for human IgG concentration by AlphaLISA® immunoassay (PerkinElmer, No. AL310C) (Table 4). A plate-based MSD ELISA was performed in which human LILRB1-His or LILRB2-His was immobilized, and binding of transfection supernatants of humanized mAb variants was detected via an anti-human IgG Sulfo-tag-labeled secondary antibody. The IgG1 version of the parental rabbit/human chimera (designated B21A1) transfection served as the benchmark EC₅₀ positive control.
(§2) Recombinant human and cynomolgus LILRB1 proteins (R&D Systems, No. 8989-T2-050; ACROBiosystems, No. CDJ-C52H3) and recombinant human and cynomolgus LILRB2 proteins (ACROBiosystems, No. LI2-H5220; No. L12-C52H3) were diluted in PBS to 4 μg/mL and added to a multi-array 384-well high-binding plates (MSD, No. L21XA4) at 10 μL/well and incubated at 4° C. overnight. The plates were washed several times with Wash Buffer (0.05% Tween® 20 in PBS), using a microplate washer and then blocked with 70 μL/well of 5% BSA in PBS for 1 hour (h) at room temperature (RT) with shaking at 700 rpm. After blocking, 20 μL/well of anti-LILRB2/LILRB1 antibodies or isotype control were added to the plates, and the plates were sealed and incubated for 2 h at RT with shaking at 700 rpm. After primary antibody binding, plates were washed five times with 70 μL/well of Wash Buffer (0.05% Tween® 20 in PBS) using a microplate washer. Secondary detection antibody (SULFO-TAG™-labeled goat anti-human IgG antibody (MSD, No. R32AJ-1)) was diluted to 4 μg/mL in assay diluent (1% BSA in PBS) and 10 μL/well was added to plates and incubated at RT protected from light for 1 h, with shaking at 700 rpm. Following incubation, plates were washed five times with Wash Buffer, using a microplate washer. After removal of the final wash, 35 μL/well of MSD Gold Read Buffer B (MSD, No. R60AM-4) was added to all wells using a Multidrop combo washer/dispenser, and plates were read using MESO Sector 600MM instrument (MSD) within 5 minutes (min) after addition of Read Buffer. Signals as counts per minute (cpm) were recorded.
In general terms: An ELISA detects its analyte on a solid surface through an enzyme-linked reagent.
Turning to B1, the EC50 was determined as 1.46 ng/mL.

Take B2: the concentration giving a half-maximal response (EC50) is 2.63 ng/mL.

Regarding B3, the EC50 was 1.01 ng/mL.

Regarding B4, the half-maximal effective concentration (EC50) came out at 1.67 ng/mL.

B5: the EC50 was found to be 2.75 ng/mL.

A further experiment addresses T2, recombinant human LILRB1-His (human, UniProt Q8NHL6 24-458).
T2 construct: Bought protein; also called LILRB1 protein
The description is as above. The method, then:
as §1, §2
In the case of B1, the EC50 amounted to 1.3 ng/mL.

Consider B2, for which the concentration for a half-maximal effect (EC50) amounted to 3.73 ng/mL.

In the case of B3, the half-maximal effective concentration (EC50) was found to be 1.5 ng/mL.

In the case of B4, the concentration giving a half-maximal response (EC50) stood at 4.7 ng/mL.

With B5, the concentration for a half-maximal effect (EC50) came to 4.85 ng/mL.
